According to US20140274782A1, “AFFINITY REAGENTS AND METHODS FOR DETECTION, PURIFICATION, AND PROTEOMIC ANALYSIS OF METHYLATED PROTEINS” (The Board of Trustees of the Leland Stanford Junior …, priority 2013, published 2014):
One block for each molecule: values may come before it.

Tests used:
G9a and GLP = target: T1, G9a and GLP (Homo sapiens, UniProt Q96KQ7+Q9H9B1); test: Triple SILAC pull-down after UNC0638 treatment of 293T cells, DMSO/UNC0638 ratio of protein captured by 3×MBT; type: cell-based; design: cells were treated for 24 hours with UNC0638 at 2.5 μM or DMSO vehicle control; endogenous in cells; host or cells: HEK 293T; conditions: for Relative to UNC0638 UNC Heavy / Relative to UNC0638 UNC Light: SILAC ratio DMSO/UNC0638 of protein pulled down with 3xMBT; for Relative to UNC0638 UNC Heavy: UNC0638 in heavy SILAC media; for Relative to UNC0638 UNC Light: UNC0638 in light SILAC media; for Relative to UNC0638 Average: average of UNC Light and UNC Heavy experiments;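 as to all read-outs here: mass spectrometry (Q-Exactive) SILAC quantitation, DMSO/UNC0638 ratio computed after subtracting 3×MBTD355N mutant pull-down background, only proteins with at least twofold 3×MBT over mutant signal considered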
T1 sequence (Q96KQ7 2-1210 limits assumed): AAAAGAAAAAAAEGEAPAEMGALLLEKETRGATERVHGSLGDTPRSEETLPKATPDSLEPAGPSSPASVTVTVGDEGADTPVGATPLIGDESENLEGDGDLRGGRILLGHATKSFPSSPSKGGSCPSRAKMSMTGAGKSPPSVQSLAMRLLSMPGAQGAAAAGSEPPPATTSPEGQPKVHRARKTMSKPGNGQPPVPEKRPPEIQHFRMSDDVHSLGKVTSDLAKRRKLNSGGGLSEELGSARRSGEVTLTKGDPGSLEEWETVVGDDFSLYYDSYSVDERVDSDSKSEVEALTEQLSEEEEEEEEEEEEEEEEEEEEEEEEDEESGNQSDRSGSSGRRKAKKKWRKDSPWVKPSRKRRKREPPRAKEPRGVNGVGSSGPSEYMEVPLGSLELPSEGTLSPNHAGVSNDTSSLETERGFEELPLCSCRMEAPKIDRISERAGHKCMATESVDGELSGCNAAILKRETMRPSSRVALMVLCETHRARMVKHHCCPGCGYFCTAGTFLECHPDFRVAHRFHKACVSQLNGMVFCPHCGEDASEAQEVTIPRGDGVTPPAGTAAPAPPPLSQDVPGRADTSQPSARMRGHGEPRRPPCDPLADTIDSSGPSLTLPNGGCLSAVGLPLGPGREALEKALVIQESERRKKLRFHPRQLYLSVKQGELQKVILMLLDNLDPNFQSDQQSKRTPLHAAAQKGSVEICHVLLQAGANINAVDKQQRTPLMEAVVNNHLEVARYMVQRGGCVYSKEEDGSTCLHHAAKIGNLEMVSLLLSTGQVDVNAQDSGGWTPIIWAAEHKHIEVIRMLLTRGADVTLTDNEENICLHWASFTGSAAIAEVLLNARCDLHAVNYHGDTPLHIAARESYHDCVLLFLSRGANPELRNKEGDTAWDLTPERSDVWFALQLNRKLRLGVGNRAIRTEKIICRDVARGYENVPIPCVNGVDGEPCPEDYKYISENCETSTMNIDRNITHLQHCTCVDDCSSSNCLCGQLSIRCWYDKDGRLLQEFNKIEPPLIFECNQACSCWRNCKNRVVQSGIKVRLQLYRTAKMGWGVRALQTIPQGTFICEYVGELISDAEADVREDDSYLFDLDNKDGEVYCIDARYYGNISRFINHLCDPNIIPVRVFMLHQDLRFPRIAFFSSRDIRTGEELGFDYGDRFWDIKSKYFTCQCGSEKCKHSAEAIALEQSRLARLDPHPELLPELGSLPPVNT
T1 sequence (Q9H9B1 2-1298 limits assumed): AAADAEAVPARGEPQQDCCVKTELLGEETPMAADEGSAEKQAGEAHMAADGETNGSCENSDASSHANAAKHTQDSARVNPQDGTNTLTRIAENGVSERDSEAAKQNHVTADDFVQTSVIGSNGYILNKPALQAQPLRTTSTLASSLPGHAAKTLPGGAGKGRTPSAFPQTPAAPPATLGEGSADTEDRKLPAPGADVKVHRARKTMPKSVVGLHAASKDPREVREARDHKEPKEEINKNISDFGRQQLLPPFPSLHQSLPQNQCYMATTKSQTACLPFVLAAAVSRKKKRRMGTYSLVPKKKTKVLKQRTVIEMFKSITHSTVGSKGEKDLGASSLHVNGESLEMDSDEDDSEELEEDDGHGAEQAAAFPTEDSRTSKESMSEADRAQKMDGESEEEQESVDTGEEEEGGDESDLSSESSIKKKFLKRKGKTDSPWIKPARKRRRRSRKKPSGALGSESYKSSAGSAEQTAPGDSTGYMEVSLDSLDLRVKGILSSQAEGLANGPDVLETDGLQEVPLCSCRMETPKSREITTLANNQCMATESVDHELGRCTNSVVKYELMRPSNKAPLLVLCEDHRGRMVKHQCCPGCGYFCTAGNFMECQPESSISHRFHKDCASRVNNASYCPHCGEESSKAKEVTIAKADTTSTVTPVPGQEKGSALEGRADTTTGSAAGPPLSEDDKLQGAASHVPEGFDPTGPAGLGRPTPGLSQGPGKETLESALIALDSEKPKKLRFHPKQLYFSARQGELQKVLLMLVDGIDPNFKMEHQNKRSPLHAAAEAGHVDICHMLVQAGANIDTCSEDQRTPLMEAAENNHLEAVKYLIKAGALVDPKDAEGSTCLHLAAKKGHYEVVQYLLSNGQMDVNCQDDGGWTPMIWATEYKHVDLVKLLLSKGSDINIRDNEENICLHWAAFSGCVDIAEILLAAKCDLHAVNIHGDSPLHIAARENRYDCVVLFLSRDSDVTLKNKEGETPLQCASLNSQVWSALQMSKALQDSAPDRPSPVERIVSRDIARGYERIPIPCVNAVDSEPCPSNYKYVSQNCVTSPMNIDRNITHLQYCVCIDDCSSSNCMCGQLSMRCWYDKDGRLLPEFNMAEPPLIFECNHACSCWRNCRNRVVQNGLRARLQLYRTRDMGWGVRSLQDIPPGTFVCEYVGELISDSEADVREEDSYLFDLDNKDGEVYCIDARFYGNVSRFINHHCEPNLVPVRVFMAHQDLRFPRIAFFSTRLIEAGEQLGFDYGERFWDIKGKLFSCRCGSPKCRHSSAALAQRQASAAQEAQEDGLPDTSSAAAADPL

3×MBT domain of L3MBTL1 = test: Triple SILAC pull-down, 3xMBT/3xMBTD355N ratio (cytoplasmic, nuclear and chromatin fractions of 293T cells); type: binding, human; conditions: SILAC ratio, pull-down 3xMBT vs 3xMBTD355N; for 3xMBT/D355N UNC Heavy: experiment with UNC0638 in heavy SILAC media; for 3xMBT/D355N UNC Light: experiment with UNC0638 in light SILAC media;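 as to all read-outs here: proteins quantified with MaxQuant, requiring at least two unique peptides and quantification in both label directions, normalized to the mean of proteins from a digested loading control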

Relative to UNC0638 UNC Heavy (G9a and GLP): 0.29 log base 2
Relative to UNC0638 UNC Light (G9a and GLP): −0.01 log base 2
Relative to UNC0638 Average (G9a and GLP): 0.14 log base 2
B1: ALKBH5 (protein, UniProt Q6P6C2 2-394, looked up)
RNA demethylase ALKBH5: AAASGYTDLREKLKSMTSRDNYKAGSREAAAAAAAAVAAAAAAAAAAEPYPVSGAKRKYQEDSDPERSDYEEQQLQKEEEARKVKSGIRQMRLFSQDECAKIEARIDEVVSRAEKGLYNEHTVDRAPLRNKYFFGEGYTYGAQLQKRGPGQERLYPPGDVDEIPEWVHQLVIQKLVEHRVIPEGFVNSAVINDYQPGGCIVSHVDPIHIFERPIVSVSFFSDSALCFGCKFQFKPIRVSEPVLSLPVRRGSVTVLSGYAADEITHCIRPQDIKERRAVIILRKTRLDAPRLETKSLSSSVLPPSYASDRLSGNNRDPALKPKRSHRKADPDAAHRPRILEMDKEENRRSVLLPTHRRRGSFSSENYWRKSYESSEDCSEAAGSPARKVKMRRH
3xMBT/D355N UNC Heavy (3×MBT domain of L3MBTL1): 1.96 log base 2
3xMBT/D355N UNC Light (3×MBT domain of L3MBTL1): 1.73 log base 2

Relative to UNC0638 UNC Heavy (G9a and GLP): −0.10 log base 2
Relative to UNC0638 UNC Light (G9a and GLP): 0.38 log base 2
Relative to UNC0638 Average (G9a and GLP): 0.14 log base 2
B2: TCOF1 (protein, UniProt Q13428 1-1488, looked up)
Treacle protein: MAEARKRRELLPLIYHHLLRAGYVRAAREVKEQSGQKCFLAQPVTLLDIYTHWQQTSELGRKRKAEEDAALQAKKTRVSDPISTSESSEEEEEAEAETAKATPRLASTNSSVLGADLPSSMKEKAKAETEKAGKTGNSMPHPATGKTVANLLSGKSPRKSAEPSANTTLVSETEEEGSVPAFGAAAKPGMVSAGQADSSSEDTSSSSDETDVEGKPSVKPAQVKASSVSTKESPARKAAPAPGKVGDVTPQVKGGALPPAKRAKKPEEESESSEEGSESEEEAPAGTRSQVKASEKILQVRAASAPAKGTPGKGATPAPPGKAGAVASQTKAGKPEEDSESSSEESSDSEEETPAAKALLQAKASGKTSQVGAASAPAKESPRKGAAPAPPGKTGPAVAKAQAGKREEDSQSSSEESDSEEEAPAQAKPSGKAPQVRAASAPAKESPRKGAAPAPPRKTGPAAAQVQVGKQEEDSRSSSEESDSDREALAAMNAAQVKPLGKSPQVKPASTMGMGPLGKGAGPVPPGKVGPATPSAQVGKWEEDSESSSEESSDSSDGEVPTAVAPAQEKSLGNILQAKPTSSPAKGPPQKAGPVAVQVKAEKPMDNSESSEESSDSADSEEAPAAMTAAQAKPALKIPQTKACPKKTNTTASAKVAPVRVGTQAPRKAGTATSPAGSSPAVAGGTQRPAEDSSSSEESDSEEEKTGLAVTVGQAKSVGKGLQVKAASVPVKGSLGQGTAPVLPGKTGPTVTQVKAEKQEDSESSEEESDSEEAAASPAQVKTSVKKTQAKANPAAARAPSAKGTISAPGKVVTAAAQAKQRSPSKVKPPVRNPQNSTVLARGPASVPSVGKAVATAAQAQTGPEEDSGSSEEESDSEEEAETLAQVKPSGKTHQIRAALAPAKESPRKGAAPTPPGKTGPSAAQAGKQDDSGSSSEESDSDGEAPAAVTSAQVIKPPLIFVDPNRSPAGPAATPAQAQAASTPRKARASESTARSSSSESEDEDVIPATQCLTPGIRTNVVTMPTAHPRIAPKASMAGASSSKESSRISDGKKQEGPATQVSKKNPASLPLTQAALKVLAQKASEAQPPVARTQPSSGVDSAVGTLPATSPQSTSVQAKGTNKLRKPKLPEVQQATKAPESSDDSEDSSDSSSGSEEDGEGPQGAKSAHTLGPTPSRTETLVEETAAESSEDDVVAPSQSLLSGYMTPGLTPANSQASKATPKLDSSPSVSSTLAAKDDPDGKQEAKPQQAAGMLSPKTGGKEAASGTTPQKSRKPKKGAGNPQASTLALQSNITQCLLGQPWPLNEAQVQASVVKVLTELLEQERKKVVDTTKESSRKGWESRKRKLSGDQPAARTPRSKKKKKLGAGEGGEASVSPEKTSTTSKGKAKRDKASGDVKEKKGKGSLGSQGAKDEPEEELQKGMGTVEGGDQSNPKSKKEKKKSDKRKKDKEKKEKKKKAKKASTKDSESPSQKKKKKKKKTAEQTV
3xMBT/D355N UNC Heavy (3×MBT domain of L3MBTL1): 0.67 log base 2
3xMBT/D355N UNC Light (3×MBT domain of L3MBTL1): 3.27 log base 2
